Numbered stars: 1 amine (or outer) side, 2 acyl side, 3 side chain; on linkers, the order of the positions; unused ones are H or OH. Bridge positions count the residues as written; N and C are the ends. Side chains are listed from the residue outwards. Ends that are not written are not given here. * marks the point of attachment. C20 diacid = O=C(O)CCCCCCCCCCCCCCCCCCC(=O)*; γGlu = O=C(O)[C@H](CCC(=O)[*:2])N[*:1]
T1: human amylin 3(a) receptor (human calcitonin receptor plus RAMP-3) (human, UniProt P30988 25-474; O60896 24-148, limits assumed)
T1 sequence (looked up) 1: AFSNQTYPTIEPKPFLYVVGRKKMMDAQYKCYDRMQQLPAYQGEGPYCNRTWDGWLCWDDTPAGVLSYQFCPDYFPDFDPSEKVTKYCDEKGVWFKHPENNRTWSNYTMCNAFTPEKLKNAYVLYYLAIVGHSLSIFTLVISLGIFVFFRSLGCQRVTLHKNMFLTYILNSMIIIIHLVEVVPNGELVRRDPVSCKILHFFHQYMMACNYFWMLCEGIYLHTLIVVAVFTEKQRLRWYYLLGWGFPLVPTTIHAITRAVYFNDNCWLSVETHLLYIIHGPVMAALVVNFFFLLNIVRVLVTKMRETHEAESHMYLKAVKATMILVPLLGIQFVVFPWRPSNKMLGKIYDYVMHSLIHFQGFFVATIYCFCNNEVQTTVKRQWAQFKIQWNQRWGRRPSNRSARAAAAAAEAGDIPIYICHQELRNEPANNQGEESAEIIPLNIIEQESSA
T1 sequence (looked up) 2: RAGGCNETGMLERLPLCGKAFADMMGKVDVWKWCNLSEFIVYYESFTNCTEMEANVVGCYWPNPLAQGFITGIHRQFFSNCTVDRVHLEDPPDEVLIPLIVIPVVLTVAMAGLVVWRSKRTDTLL

T2: human calcitonin receptor (human, UniProt P30988 25-474)
T2 sequence (looked up): T1 sequence (looked up) 1

B1: N^ε1-[(4S)-4-carboxy-4-(19-carboxynonadecanoylamino)butanoyl]-[Glu14,Arg17,Pro21,Pro27,Pro34,Pro37]-h-amylin (peptide)
peptide: K([γGlu-C20 diacid])CNTATCATQRLAEFLRHSSPNFGAIPSSTNVGPNTP-NH2
modifications: disulfide 2-7; N-terminus assumed
SMILES: CC[C@H](C)[C@H](NC(=O)[C@H](C)NC(=O)CNC(=O)[C@H](Cc1ccccc1)NC(=O)[C@H](CC(N)=O)NC(=O)[C@@H]1CCCN1C(=O)[C@H](CO)NC(=O)[C@H](CO)NC(=O)[C@H](Cc1c[nH]cn1)NC(=O)[C@H](CCCNC(=N)N)NC(=O)[C@H](CC(C)C)NC(=O)[C@H](Cc1ccccc1)NC(=O)[C@H](CCC(=O)O)NC(=O)[C@H](C)NC(=O)[C@H](CC(C)C)NC(=O)[C@H](CCCNC(=N)N)NC(=O)[C@H](CCC(N)=O)NC(=O)[C@@H](NC(=O)[C@H](C)NC(=O)[C@@H]1CSSC[C@H](NC(=O)[C@@H](N)CCCCNC(=O)CC[C@H](NC(=O)CCCCCCCCCCCCCCCCCCC(=O)O)C(=O)O)C(=O)N[C@@H](CC(N)=O)C(=O)N[C@@H]([C@@H](C)O)C(=O)N[C@@H](C)C(=O)N[C@@H]([C@@H](C)O)C(=O)N1)[C@@H](C)O)C(=O)N1CCC[C@H]1C(=O)N[C@@H](CO)C(=O)N[C@@H](CO)C(=O)N[C@H](C(=O)N[C@@H](CC(N)=O)C(=O)N[C@H](C(=O)NCC(=O)N1CCC[C@H]1C(=O)N[C@@H](CC(N)=O)C(=O)N[C@H](C(=O)N1CCC[C@H]1C(N)=O)[C@@H](C)O)C(C)C)[C@@H](C)O
B2: N^ε1-[(4S)-4-carboxy-4-[[(4S)-4-carboxy-4-(19-carboxynonadecanoylamino)butanoyl]amino]butanoyl]-[Glu14,Arg17,Pro21,Pro27,Arg34,Glu35]-h-amylin (peptide)
peptide: K([γGlu-γGlu-C20 diacid])CNTATCATQRLAEFLRHSSPNFGAIPSSTNVGRETY-NH2
modifications: disulfide 2-7; N-terminus assumed
SMILES: CC[C@H](C)[C@H](NC(=O)[C@H](C)NC(=O)CNC(=O)[C@H](Cc1ccccc1)NC(=O)[C@H](CC(N)=O)NC(=O)[C@@H]1CCCN1C(=O)[C@H](CO)NC(=O)[C@H](CO)NC(=O)[C@H](Cc1c[nH]cn1)NC(=O)[C@H](CCCNC(=N)N)NC(=O)[C@H](CC(C)C)NC(=O)[C@H](Cc1ccccc1)NC(=O)[C@H](CCC(=O)O)NC(=O)[C@H](C)NC(=O)[C@H](CC(C)C)NC(=O)[C@H](CCCNC(=N)N)NC(=O)[C@H](CCC(N)=O)NC(=O)[C@@H](NC(=O)[C@H](C)NC(=O)[C@@H]1CSSC[C@H](NC(=O)[C@@H](N)CCCCNC(=O)CC[C@H](NC(=O)CC[C@H](NC(=O)CCCCCCCCCCCCCCCCCCC(=O)O)C(=O)O)C(=O)O)C(=O)N[C@@H](CC(N)=O)C(=O)N[C@@H]([C@@H](C)O)C(=O)N[C@@H](C)C(=O)N[C@@H]([C@@H](C)O)C(=O)N1)[C@@H](C)O)C(=O)N1CCC[C@H]1C(=O)N[C@@H](CO)C(=O)N[C@@H](CO)C(=O)N[C@H](C(=O)N[C@@H](CC(N)=O)C(=O)N[C@H](C(=O)NCC(=O)N[C@@H](CCCNC(=N)N)C(=O)N[C@@H](CCC(=O)O)C(=O)N[C@H](C(=O)N[C@@H](Cc1ccc(O)cc1)C(N)=O)[C@@H](C)O)C(C)C)[C@@H](C)O
B3: N^ε1-[(4S)-4-carboxy-4-[[(4S)-4-carboxy-4-(19-carboxynonadecanoylamino)butanoyl]amino]butanoyl]-[Glu14,Arg17,Pro21,Pro27,Arg35]-h-amylin (peptide)
peptide: K([γGlu-γGlu-C20 diacid])CNTATCATQRLAEFLRHSSPNFGAIPSSTNVGSRTY-NH2
modifications: disulfide 2-7; N-terminus assumed
SMILES: CC[C@H](C)[C@H](NC(=O)[C@H](C)NC(=O)CNC(=O)[C@H](Cc1ccccc1)NC(=O)[C@H](CC(N)=O)NC(=O)[C@@H]1CCCN1C(=O)[C@H](CO)NC(=O)[C@H](CO)NC(=O)[C@H](Cc1c[nH]cn1)NC(=O)[C@H](CCCNC(=N)N)NC(=O)[C@H](CC(C)C)NC(=O)[C@H](Cc1ccccc1)NC(=O)[C@H](CCC(=O)O)NC(=O)[C@H](C)NC(=O)[C@H](CC(C)C)NC(=O)[C@H](CCCNC(=N)N)NC(=O)[C@H](CCC(N)=O)NC(=O)[C@@H](NC(=O)[C@H](C)NC(=O)[C@@H]1CSSC[C@H](NC(=O)[C@@H](N)CCCCNC(=O)CC[C@H](NC(=O)CC[C@H](NC(=O)CCCCCCCCCCCCCCCCCCC(=O)O)C(=O)O)C(=O)O)C(=O)N[C@@H](CC(N)=O)C(=O)N[C@@H]([C@@H](C)O)C(=O)N[C@@H](C)C(=O)N[C@@H]([C@@H](C)O)C(=O)N1)[C@@H](C)O)C(=O)N1CCC[C@H]1C(=O)N[C@@H](CO)C(=O)N[C@@H](CO)C(=O)N[C@H](C(=O)N[C@@H](CC(N)=O)C(=O)N[C@H](C(=O)NCC(=O)N[C@@H](CO)C(=O)N[C@@H](CCCNC(=N)N)C(=O)N[C@H](C(=O)N[C@@H](Cc1ccc(O)cc1)C(N)=O)[C@@H](C)O)C(C)C)[C@@H](C)O
notes: also called compound 89
B4: N^ε1-[(4S)-4-carboxy-4-[[(4S)-4-carboxy-4-(19-carboxynonadecanoylamino)butanoyl]amino]butanoyl]-[Glu14,Arg17,Pro21,Pro27,Arg34]-h-amylin (peptide)
peptide: K([γGlu-γGlu-C20 diacid])CNTATCATQRLAEFLRHSSPNFGAIPSSTNVGRNTY-NH2
modifications: disulfide 2-7; N-terminus assumed
SMILES: CC[C@H](C)[C@H](NC(=O)[C@H](C)NC(=O)CNC(=O)[C@H](Cc1ccccc1)NC(=O)[C@H](CC(N)=O)NC(=O)[C@@H]1CCCN1C(=O)[C@H](CO)NC(=O)[C@H](CO)NC(=O)[C@H](Cc1c[nH]cn1)NC(=O)[C@H](CCCNC(=N)N)NC(=O)[C@H](CC(C)C)NC(=O)[C@H](Cc1ccccc1)NC(=O)[C@H](CCC(=O)O)NC(=O)[C@H](C)NC(=O)[C@H](CC(C)C)NC(=O)[C@H](CCCNC(=N)N)NC(=O)[C@H](CCC(N)=O)NC(=O)[C@@H](NC(=O)[C@H](C)NC(=O)[C@@H]1CSSC[C@H](NC(=O)[C@@H](N)CCCCNC(=O)CC[C@H](NC(=O)CC[C@H](NC(=O)CCCCCCCCCCCCCCCCCCC(=O)O)C(=O)O)C(=O)O)C(=O)N[C@@H](CC(N)=O)C(=O)N[C@@H]([C@@H](C)O)C(=O)N[C@@H](C)C(=O)N[C@@H]([C@@H](C)O)C(=O)N1)[C@@H](C)O)C(=O)N1CCC[C@H]1C(=O)N[C@@H](CO)C(=O)N[C@@H](CO)C(=O)N[C@H](C(=O)N[C@@H](CC(N)=O)C(=O)N[C@H](C(=O)NCC(=O)N[C@@H](CCCNC(=N)N)C(=O)N[C@@H](CC(N)=O)C(=O)N[C@H](C(=O)N[C@@H](Cc1ccc(O)cc1)C(N)=O)[C@@H](C)O)C(C)C)[C@@H](C)O
notes: also called compound 88

target: T1, human amylin 3(a) receptor (human …); assay: cell-based or functional assay

Row | Ratio hCT/hAmylin funct. | hAmylin-R funct. EC50 | Binder
1 | 0.9 | 0.105 nM | B1
2 |  | 0.703 nM | B2
3 | 27.8 | 0.404 nM | B3
4 | 8.5 | 0.773 nM | B4

target: T2, human calcitonin receptor; assay: cell-based or functional assay

Row | hCTR funct. EC50 | Binder
5 | 0.09 nM | B1
6 | 7.43 nM | B2
7 | 11.2 nM | B3
8 | 6.55 nM | B4

target: T1, human amylin 3(a) receptor (human …); assay: SPA competition binding, displacement of 125I-rat amylin from membranes of Amylin 3(a)/CRE-luc BHK cells (Assay V)
Method in brief: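 SPA beads with BHK Amylin 3(a)/CRE-luc cell membranes (35 ng/μL final) in 50 mM Hepes pH 7.4, 1 mM CaCl2, 5 mM MgCl₂, 0.1% OA, 0.02% Tween20.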

Row | IC50 | Binder
9 | 0.214 nM | B1
10 | 0.957 nM | B2
11 | 1.16 nM | B3
12 | 0.75 nM | B4

Source: patent publication US20140087995A1 (published 2014)
